The labels stand for the following.
B2: PBP2 (wild type), fused to mKO or to mCherry (enzyme, E. coli, UniProt P0AD65 1-633, looked up)
chain: MKLQNSFRDYTAESALFVRRALVAFLGILLLTGVLIANLYNLQIVRFTDYQTRSNENRIKLVPIAPSRGIIYDRNGIPLALNRTIYQIEMMPEKVDNVQQTLDALRSVVDLTDDDIAAFRKERARSHRFTSIPVKTNLTEVQVARFAVNQYRFPGVEVKGYKRRYYPYGSALTHVIGYVSKINDKDVERLNNDGKLANYAATHDIGKLGIERYYEDVLHGQTGYEEVEVNNRGRVIRQLKEVPPQAGHDIYLTLDLKLQQYIETLLAGSRAAVVVTDPRTGGVLALVSTPSYDPNLFVDGISSKDYSALLNDPNTPLVNRATQGVYPPASTVKPYVAVSALSAGVITRNTTLFDPGWWQLPGSEKRYRDWKKWGHGRLNVTRSLEESADTFFYQVAYDMGIDRLSEWMGKFGYGHYTGIDLAEERSGNMPTREWKQKRFKKPWYQGDTIPVGIGQGYWTATPIQMSKALMILINDGIVKVPHLLMSTAEDGKQVPWVQPHEPPVGDIHSGYWELAKDGMYGVANRPNGTAHKYFASAPYKIAAKSGTAQVFGLKANETYNAHKIAERLRDHKLMTAFAPYNNPQVAVAMILENGGAGPAVGTLMRQILDHIMLGDNNTDLPAENPAVAAAEDH
notes: PBP2, peptidoglycan transpeptidase of the E. coli elongasome, wild type; mKO-PBP2 in all others; also called mKO-PBP2^WT; mKO-PBP2; source: E. coli LMC500, expressed from plasmid (15 uM IPTG), in fixed cells; not shown: mKO (donor construct, pWA004) or mCherry (acceptor construct), N-terminal, kept

What all share (assay): FRET or BRET; two-plasmid spectral FRET in E. coli LMC500 cells; mCherry fusion as acceptor, mKO fusion as donor; Gb4 medium, steady state at 28 C, 15 uM IPTG for two mass doublings, FAGA-fixed; acceptor FRET efficiency (EfA) by spectral unmixing
Background: BRET reads energy transfer from a luciferase to a nearby fluorophore.

Data set [1] deals with B2. As to conditions: partners not purified.
Data set [2] has as its target T1, mKO-PBP2^L61R (E. coli, UniProt P0AD65 1-633, L61R).
T1 construct: PBP2 of E. coli with L61R (hyperactive variant); made from pWA004 by mutagenesis PCR; also called hyperactive PBP2^L61R; source: E. coli LMC500, expressed from plasmid (15 uM IPTG), in fixed cells; not shown: mKO, N-terminal, kept
T1 sequence (looked up): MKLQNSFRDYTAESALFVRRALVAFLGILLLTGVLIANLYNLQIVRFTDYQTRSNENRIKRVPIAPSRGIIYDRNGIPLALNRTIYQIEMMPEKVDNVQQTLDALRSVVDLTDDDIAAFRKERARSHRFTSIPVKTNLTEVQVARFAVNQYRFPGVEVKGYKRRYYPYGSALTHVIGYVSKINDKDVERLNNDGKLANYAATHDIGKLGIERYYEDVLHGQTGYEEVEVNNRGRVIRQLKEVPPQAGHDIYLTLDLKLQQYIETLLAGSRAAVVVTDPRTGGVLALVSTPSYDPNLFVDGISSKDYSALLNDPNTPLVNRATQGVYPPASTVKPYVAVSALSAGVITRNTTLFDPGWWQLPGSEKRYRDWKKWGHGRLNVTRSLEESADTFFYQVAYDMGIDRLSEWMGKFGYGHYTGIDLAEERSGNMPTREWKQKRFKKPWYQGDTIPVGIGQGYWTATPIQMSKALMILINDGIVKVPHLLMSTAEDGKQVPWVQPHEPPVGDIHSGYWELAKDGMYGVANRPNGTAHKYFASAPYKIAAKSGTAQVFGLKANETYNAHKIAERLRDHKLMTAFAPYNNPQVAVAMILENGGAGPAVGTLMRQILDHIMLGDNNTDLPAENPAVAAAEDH
As to conditions: partners not purified.

Data set [3] concerns the molecule itself.
Data set [4] deals with T2, RodA (wild type), fused to mCherry or to mKO (E. coli, UniProt P0ABG7 1-370).
T2 construct: RodA, peptidoglycan glycosyltransferase of the E. coli elongasome; wild-type rodA gene; mCh-RodA in all others; also called mCh-RodA; mKO-RodA; source: E. coli LMC500, expressed from plasmid (15 uM IPTG), in fixed cells; not shown: mCherry (acceptor construct, pSAV047-RodA) or mKO (donor construct, pXL56), N-terminal, kept
T2 sequence (looked up): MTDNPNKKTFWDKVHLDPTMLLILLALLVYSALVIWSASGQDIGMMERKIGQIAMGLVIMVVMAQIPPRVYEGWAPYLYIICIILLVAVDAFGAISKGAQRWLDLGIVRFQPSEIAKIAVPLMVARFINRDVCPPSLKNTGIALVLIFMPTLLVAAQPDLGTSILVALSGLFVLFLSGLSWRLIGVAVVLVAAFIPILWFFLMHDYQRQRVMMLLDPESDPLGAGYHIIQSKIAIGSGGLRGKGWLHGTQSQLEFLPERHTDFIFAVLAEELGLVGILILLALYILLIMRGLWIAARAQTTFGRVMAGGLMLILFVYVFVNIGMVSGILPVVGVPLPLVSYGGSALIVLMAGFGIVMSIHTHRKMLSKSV
As to conditions: partners not purified.

B1: mCh-MreC (natural protein, E. coli, UniProt P16926 1-367, looked up)
chain: MKPIFSRGPSLQIRLILAVLVALGIIIADSRLGTFSQIRTYMDTAVSPFYFVSNAPRELLDGVSQTLASRDQLELENRALRQELLLKNSELLMLGQYKQENARLRELLGSPLRQDEQKMVTQVISTVNDPYSDQVVIDKGSVNGVYEGQPVISDKGVVGQVVAVAKLTSRVLLICDATHALPIQVLRNDIRVIAAGNGCTDDLQLEHLPANTDIRVGDVLVTSGLGGRFPEGYPVAVVSSVKLDTQRAYTVIQARPTAGLQRLRYLLLLWGADRNGANPMTPEEVHRVANERLMQMMPQVLPSPDAMGPKLPEPATGIAQPTPQQPATGNAATAPAAPTQPAANRSPQRATPPQSGAQPPARAPGGQ
For B1, the “EfA (acceptor FRET efficiency)” value in data set [1] was determined as 5.1%; in data set [2] it was 5.3%.

With B2, in data set [3], the “EfA (acceptor FRET efficiency)” value turned out to be 9.2%.

B3: mCh-RodA^Q207R (enzyme, E. coli, UniProt P0ABG7 1-370, looked up)
chain: MTDNPNKKTFWDKVHLDPTMLLILLALLVYSALVIWSASGQDIGMMERKIGQIAMGLVIMVVMAQIPPRVYEGWAPYLYIICIILLVAVDAFGAISKGAQRWLDLGIVRFQPSEIAKIAVPLMVARFINRDVCPPSLKNTGIALVLIFMPTLLVAAQPDLGTSILVALSGLFVLFLSGLSWRLIGVAVVLVAAFIPILWFFLMHDYRRQRVMMLLDPESDPLGAGYHIIQSKIAIGSGGLRGKGWLHGTQSQLEFLPERHTDFIFAVLAEELGLVGILILLALYILLIMRGLWIAARAQTTFGRVMAGGLMLILFVYVFVNIGMVSGILPVVGVPLPLVSYGGSALIVLMAGFGIVMSIHTHRKMLSKSV
As for B3, the “EfA (acceptor FRET efficiency)” value in data set [1] came out at 12.7%.

B4: mCh-RodA^R109A (enzyme, E. coli, UniProt P0ABG7 1-370, looked up)
chain: MTDNPNKKTFWDKVHLDPTMLLILLALLVYSALVIWSASGQDIGMMERKIGQIAMGLVIMVVMAQIPPRVYEGWAPYLYIICIILLVAVDAFGAISKGAQRWLDLGIVAFQPSEIAKIAVPLMVARFINRDVCPPSLKNTGIALVLIFMPTLLVAAQPDLGTSILVALSGLFVLFLSGLSWRLIGVAVVLVAAFIPILWFFLMHDYQRQRVMMLLDPESDPLGAGYHIIQSKIAIGSGGLRGKGWLHGTQSQLEFLPERHTDFIFAVLAEELGLVGILILLALYILLIMRGLWIAARAQTTFGRVMAGGLMLILFVYVFVNIGMVSGILPVVGVPLPLVSYGGSALIVLMAGFGIVMSIHTHRKMLSKSV
As for B4, the “EfA (acceptor FRET efficiency)” value in data set [1] is 12.5%.

B5: mCh-MreB^SW (natural protein, E. coli, UniProt P0A9X4 1-347, looked up)
chain: MLKKFRGMFSNDLSIDLGTANTLIYVKGQGIVLNEPSVVAIRQDRAGSPKSVAAVGHDAKQMLGRTPGNIAAIRPMKDGVIADFFVTEKMLQHFIKQVHSNSFMRPSPRVLVCVPVGATQVERRAIRESAQGAGAREVFLIEEPMAAAIGAGLPVSEATGSMVVDIGGGTTEVAVISLNGVVYSSSVRIGGDRFDEAIINYVRRNYGSLIGEATAERIKHEIGSAYPGDEVREIEVRGRNLAEGVPRGFTLNSNEILEALQEPLTGIVSAVMVALEQCPPELASDISERGMVLTGGGALLRNLDRLLMEETGIPVVVAEDPLTCVARGGGKALEMIDMHGGDLFSEE
notes: MreB of E. coli with mCherry inserted inside the chain (sandwich fusion); also called sandwich fusion of MreB-mCherry-MreB; source: E. coli LMC500, expressed from plasmid (15 uM IPTG), in fixed cells
Consider B5, for which, in data set [4], the “EfA (acceptor FRET efficiency)” value was determined as 7.2%.
